Reference: patent US20160362456
Positions count from the first letter of the chain named. pKd: −log10 of the molar value.

Assays:
Test in all cases: EMSA
Conditions in all cases: derived from FIG. 2D
[1] = biological target: T1, XylR wild-type (Escherichia coli) (UniProt P0ACI3)
T1 sequence: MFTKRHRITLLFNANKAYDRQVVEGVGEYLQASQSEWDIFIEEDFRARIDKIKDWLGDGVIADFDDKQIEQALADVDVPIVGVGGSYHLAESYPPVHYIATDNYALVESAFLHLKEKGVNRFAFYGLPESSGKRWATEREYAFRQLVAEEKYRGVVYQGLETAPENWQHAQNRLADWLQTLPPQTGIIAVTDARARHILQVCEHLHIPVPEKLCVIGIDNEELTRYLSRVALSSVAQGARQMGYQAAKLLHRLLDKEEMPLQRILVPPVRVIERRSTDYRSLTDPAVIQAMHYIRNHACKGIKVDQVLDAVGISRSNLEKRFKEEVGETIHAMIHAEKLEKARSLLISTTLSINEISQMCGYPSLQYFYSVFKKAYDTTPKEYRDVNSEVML

[2] = biological target: T2, XylR R121C R121C (Escherichia coli) (UniProt P0ACI3)
T2 sequence: T1 sequence with R121C

[3] = biological target: T3, XylR P363S P363S (Escherichia coli) (UniProt P0ACI3)
T3 sequence: T1 sequence with P363S

XylR binding site IA
pKd [1]: 7.41 | pKd [2]: 8.57 | pKd [3]: 7.91

XylR binding site IF
pKd [1]: 7.71 | pKd [2]: 8.40 | pKd ([3]; value as printed): 7.57
